From US20250289903A1 (PURINNOMIA BIOTECH, published 2025) come the findings set out here.

Sequences and labels used below:
T1: human CD39 (ectonucleoside triphosphate diphosphohydrolase-1) (human, UniProt P49961 1-510)
T1 construct: whole, on cells; also called hCD39; ENTPD1
T1 sequence (looked up): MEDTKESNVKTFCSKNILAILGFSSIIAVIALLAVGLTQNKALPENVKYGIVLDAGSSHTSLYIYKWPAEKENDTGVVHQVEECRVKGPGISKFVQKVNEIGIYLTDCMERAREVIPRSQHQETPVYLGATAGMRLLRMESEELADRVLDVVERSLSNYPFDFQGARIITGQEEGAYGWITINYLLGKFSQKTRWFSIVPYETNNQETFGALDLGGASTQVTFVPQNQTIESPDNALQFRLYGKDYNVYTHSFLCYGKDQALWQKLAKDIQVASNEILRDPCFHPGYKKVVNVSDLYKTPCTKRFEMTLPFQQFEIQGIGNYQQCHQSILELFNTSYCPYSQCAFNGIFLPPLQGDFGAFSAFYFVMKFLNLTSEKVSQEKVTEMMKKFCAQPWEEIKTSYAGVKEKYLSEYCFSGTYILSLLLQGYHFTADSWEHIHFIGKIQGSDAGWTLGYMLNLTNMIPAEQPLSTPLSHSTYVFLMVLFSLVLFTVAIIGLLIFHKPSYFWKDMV

B1: PEO23, Human/Rabbit chimeric anti-human CD39 monoclonal antibody (antibody, V domains shown)
VH: QSVEESGGRLVTPGTPLTLTCTASGFSLSTHAINWVRQAPGKGLEWIGITYASGRTYYASWAKGRFTISKTSTTVDLKITSPTTEDTATYFCARNGADETFYYFDLWGPGTLVTVSS
VL: AYDMTQTPASVEAAVGGTVTIKCQASQNINTWLSWYQQKAGQPPKLLIYRASTLASGVSSRFKGSGSGTQFTLTISGVECADAATYYCQQYDASINIDNAFGGGTEVVVK
notes: also called clone PEO23
B2: PEO24, Human/Rabbit chimeric anti-human CD39 monoclonal antibody (antibody, V domains shown)
VH: QSVEESGGRLVTPGTPLTLTCTVSGIDLSSNAMSWVRQAPGKGLEYIGIIRNNDITYYASWAKGRFTISKTSTTVDLIITSPTTEDTATYFCARGGGSYSIVFWNLWGPGTLVTVSS
VL: AYDMTQTPASVEVAVGGTVTINCQASERIYSNLAWYQQKPGQRPKLLIYYASTLASGVSSRFKGSGSGTQFTLTISGVQCADAATYYCQQGYSNNNVDNTFGGGTEVVVR
notes: also called clone PEO24
B3: PEO18, Human/Rabbit chimeric anti-human CD39 monoclonal antibody (antibody, V domains shown)
VH: QSVKEAGGRLVTPGGSLTLTCTVSGFSLSAYGISWVRQAPGKGLEWIGIIYSSGRTYYANWAKGRFTISKTSSTTVDLKMTSLTTEDTAAYFCARSRAGISSGDGFDSWGPGTLVTVSS
VL: ALVMTQTPSSVSAAVGGTVTINCQASQNIYSNLAWYQQKPGQRPQLLIYRASTLASGVPSRFKGSASGTEYTLTISGVQCDDAATYYCQQGFDSSNIDNTFGGGTEVVVT
notes: also called clone PEO18
B4: PEO19, Human/Rabbit chimeric anti-human CD39 monoclonal antibody (antibody, V domains shown)
VH: QSVEESGGRLVTPGTHLTLTCTVSGFSLSKSIISWVRQAPGKGLEYIGIIGSSGSTYYANWAKGRFTISKTSSTTVDLRMTSLTPEDTATYFCARGLLYSGNKSWGPGTLVTVSS
VL: AIDMTQTPSSVSAAVGGTVTINCQSSQSVLLNNQLSWFQQKPGQPPKLLIYDASTLESGVPSRFTGSGSGTQFTLTISDLECDDAATYYCLGGYSGNLYAFGGGTEVLVK
notes: also called clone PEO19
B5: PEONP22, afucosylated counterpart of PEOWT22 (antibody, human IgG1, kappa, V domains shown)
VH: EVQLVESGGGVVRPGGSLRLSCAASGFTFSSYAMHWVRQAPGKGLEWVAVISYDVSNKYYADSVKGRFTISRDNSKNTLYLQMNSLRAEDTAVYYCARSYYYYYGMDVWGQGTTVTVSS
VL: DVVMTQSPSSLSASVGDRVTITCRASQSISRYLAWYQQKPGQAPRLLIYDASNRATGIPVRFSGSGSGTDFTLTISRLEPEDFAVYYCQQFGRSPRTFGQGTRLEIKR
modifications: afucosylated (Fc glycan); no genetic modifications
notes: Produced by CHO cells stably transfected with the parental PEOWT22 plasmid
B6: PEO21, Human/Rabbit chimeric anti-human CD39 monoclonal antibody (antibody, V domains shown)
VH: QSVEESGGRLVTPGTPLTLTCTVSGFSLSSYAMSWVRQAPGKGLEYIGIISSSGSTYYASWAKGRFTISKTSTTVDLKISSPTTEDTATYFCARDRVIYSIGPYYFNLWGPGTLVTVSS
VL: AYDMTQTPSSVSATVGGTVTINCQASEIIYSNLAWYQQKPGQPPKLLIYGASTLASGVPSRFKGSGSGTEYTLTISDLQCDDAATYYCQQSFSSNNVGNIFGGGTEVVVK
notes: also called clone PEO21
B7: PEO20, Human/Rabbit chimeric anti-human CD39 monoclonal antibody (antibody, V domains shown)
VH: QSVEESGGRLVTPGTPLTLTCTVSGFSLSSYAISWVRQAPGKGLEYIAIINSYGTTYYASWAKGRVTISKTSSTVDLKISSPTTEDTATYFCARGDSYGSGVGLGLWGPGTLVTVSS
VL: AYDMTQTPASVEVAVGGTVTIKCQASQNIYSNLAWYQQKPGQRPKLLIYRASSLASGVPSRFSGSGSGTEFTLTISGVQCDDAATYYCQQGFSSNNVDNTFGGGTEVVVK
notes: also called clone PEO20
B8: PEO22, optimized afucosylated counterpart of PEOWT22 (antibody, human IgG1, kappa, V domains shown)
VH: B5 VH
VL: B5 VL
modifications: afucosylated (Fc glycan); no genetic modifications
B9: PEOWT22, fully human anti-CD39 monoclonal antibody (parent, fully fucosylated) (antibody, human IgG1, kappa, V domains shown)
VH: B5 VH
VL: B5 VL

One assay deals with T1, human CD39 (ectonucleoside triphosphate …). Nature of the assay: flow cytometry epitope competition on HCC1739BL cells, competitor PE-Clone A1. The method, then:
HCC1739BL cells were incubated with a panel of 18 anti-human CD39 monoclonal antibodies (Human/Rabbit chimeric clones; unconjugated, 2 μg/mL) at 4° C. for 30 minutes, followed by washing and staining with PE-conjugated mouse anti-human CD39 monoclonal antibody (Clone A1) for 30 minutes at 4° C. Cells were then analyzed by flow cytometry and PE median fluorescence intensity (MFI) was detected. Cells incubated with media instead of chimeric antibody were used as control.
Unconjugated anti-human CD39 monoclonal antibodies (Human/Rabbit chimeric clones; 2 μg/mL) were incubated with HCC1739BL cells (1×10⁵ cells) for 30 minutes at 4° C. Cells were then washed twice with cell staining buffer and stained with PE-conjugated mouse anti-human CD39 monoclonal antibody Clone A1 (0.25 μg/mL, Biolegend #328208) for 30 minutes at 4° C. Cells were then washed twice and analyzed by a Cytek™ Aurora flow cytometer. PE median fluorescence intensity (MFI) was detected, and data was analyzed by FCS […] Express 7 software (De Novo Software). Cells incubated with media instead of the chimeric antibody were used as control.
In general terms: Flow cytometry measures light scatter and fluorescence of single cells or particles in a stream.
Turning to B1, the binding result was “binds”. On the same count and under the same terms, the entry for B2 is “binds”; for B3 it is “binds”.

The target is the same in another assay. As to the kind of experiment: stable immune complex assay, HCC1739BL cells, 2 µg/mL, anti-human IgG Fc AF488 MFI, 24 h 37°C vs 20 min 4°C. The protocol: Exemplary anti-human CD39 antibodies presenting high, low and no ADCC activity (2 μg/mL) were incubated with HCC1739BL cells for 24 hours at 37° C. in 5% CO₂ or 20 minutes at 4° C., followed by secondary antibody staining (anti-human IgG (Fc specific), Alexa Fluor® 488) for 30 minutes at 4° C. Cells were then washed and analyzed by flow cytometry. The difference in AF488 MFI between 20 minutes and 24 hours treatment represents the loss of human CD39 on cell membrane that was calculated as described in Materials and Methods. […] Hu/Ra: Human/Rabbit chimeric antibody; hIgG1: humanized rabbit antibody, IgG1 isotype.
HCC1739BL cells (5×10⁵ cells/mL) were incubated with anti-human CD39 monoclonal antibodies (2 μg/mL) or left untreated for 24 hours at 37° C. in 5% CO₂. The following day, untreated cells were exposed to the same panel of monoclonal antibodies (2 μg/mL) but for 20 minutes at 4° C. to obtain the basal level of CD39 expression. Cells were then washed twice with cell staining buffer and stained with anti-human IgG (Fc specific) Alexa Fluor® 488 (1:2000) for 30 minutes at 4° C., followed by two additional washes and fixation with paraformaldehyde (PFA, 2%) for 10 minutes at room temperature. Lastly, cells were washed twice and analyzed by a Cytek™ Aurora flow cytometer (Cytek Biosciences). Alexa Fluor® 488 (AF488) MFI was detected, and data was analyzed by FCS Express 7 software (De Novo Software). The percentage of human CD39 loss on cell membrane at 24 hours was calculated as: [(20 min MFI-24 h MFI/20 min MFI)]X100.
For B4, the “loss of human CD39 (immune complex) on cell membrane at 24 hours” value is under 30%. On the same count and under the same terms, the figure for B5 is under 30%; for B6 it is under 30%; for B7 it is under 30%.

A further assay has the same target. Nature of the assay: cell-based or functional assay.
Regarding B8, the “EC50 of NK cytotoxicity toward human eosinophils (in-vitro ADCC assay, human NK effector cells)” value worked out at 0.294 ng/mL. Same read-out and setting: the figure for B9 is 3.03 ng/mL.
